Assay results from publication PMC6715736.

Target: T1, His6-RacR (Escherichia coli JM83 (Rac prophage)) (UniProt P76062)
T1 sequence: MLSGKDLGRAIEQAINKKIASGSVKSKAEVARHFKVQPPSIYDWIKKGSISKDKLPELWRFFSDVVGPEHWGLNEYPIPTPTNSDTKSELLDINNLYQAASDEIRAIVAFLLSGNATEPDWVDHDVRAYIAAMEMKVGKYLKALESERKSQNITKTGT
Test: EMSA
Conditions: EMSA: 10 mM Tris-HCl pH 8.0, 1 mM EDTA, 0.1 M NaCl, 0.1 mM DTT, 5% glycerol, 10 ug/mL BSA, 50 ug/mL poly(dI-C), 28 C 40 min; 6% PAGE in 0.5x TBE

**Q.** Which binding does the source give for “GGTTCATCTCGGCTCCTGCTGCGGCGGTTGTCTTCGCGGATTTTGAAATAGAGATTTGTCAGATACGTCATTACGGCAATGATGATACCCACCAGCACGCCGATAGCGTTCCACTGCTCGGGGCTGTAGGCATTCAACATGCCGTTTAGGATGCTCCCGGCTGAAGCGCCATAGGCAGCACCAGTGGTTAGTTTGTCCATGCGATACATACTCTCACCTCGCTTTGTGCGAGTGCTGTTGCT (double strand) [lysN* probe]” here?
**A.** The binding was “binds”.
